A short description of this series: soluble on expression in E. coli; label from the status in PepcDB or PDB records.
Take “MHSMKLLVTGGMGFIGSNFIRYILEKHPDWEVINIDKLGYGSNPANLKDLEDDPRYTFVKGDVADYELVKELVRKVDGVVHLAAESHVDRSISSPEIFLHSNVIGTYTLLESIRRENPEVRFVHVSTDEVYGDILKGSFTENDRLMPSSPYSATKAASDMLVLGWTRTYNLNASITRCTNNYGPYQFPEKLIPKTIIRASLGLKIPIYGTGKNVRDWLYVEDHVRAIELVLLKGESREIYNISAGEEKTNLEVVKIILRLMGKGEELIELVEDRPGHDLRYSLDSWKITRDLKWRPKYTFDEGIKKTIDWYLKNEWWWKPLVDERILHPTPWKLKW”: the “soluble on expression in E. coli” value was “soluble”.

For the sequence “MQMKRTAFFISDGTGITAETLGQSLLAQFENISFVKLTRPYIDTEEKARAMVQQINNAAESDGARPIIFDTIVNRDIRAVLAQSNGFMIDIFATFLSPLEQELSADSSYSVGKSHSIGHNSNYMDRIEAVNFALDNDDGARTHYYDKADLILVGVSRCGKTPTCLYMALQYGIRAANYPLTEEDMERLQLPNALKQYKHKLFGLTIDPDRLTAIRNERKPNSRYASFAQCEFEVREVESLFRRENIAYINSTHFSVEEISAKILVEKGVERRFKLEHHHHHH”, the “soluble on expression in E. coli” value was “not soluble”.

Consider “MSLELVSLLMQDCQSTGDIQSKLKRLFAGTIEQMLEAEMEDHLGYEKNSIEGNNSGNSRNGYNRKTIISDYGASEIAVPRDRNGEFEPKILEKRQTRTDEIEQKILSMYSKGMSQRDIEDTLREIYGAEIPQTLISKITDKILPEVNEWQNRPLESVYPIIYFDGIVFKSRKDSQIINKCVYSVLGIDMNGHKDILGIWLSENESASFYASICSDLKKRGIQDIFIACHDNLKGLGEAINAVFPKTKQQLCIVHQIRNSTKFVQYKDRKAICADLKKIYGAVNLDDAEYAKEEFREKWDKKYPSILRSWDANWAELTTFFNYPEQIRHLIYTTNAVEAYHRMVRKFTKTKSIFPTDDSIRKVVFLSSREITKKWTQPSRGWPMAYSQIMIFFADRFIAEGHHHHHH”, for which the “soluble on expression in E. coli” value was “soluble”.

Take “TEEPDFTALCQKLKIPDHVRERAWLTWEKVSSVDGVLGGYIQKKKELWGICIFIAAVDLDEMSFTFTELQKNIEISVHKFFNLLKEIDTSTKVDNAMSRLLKKYDVLFALFSKLERTCELIYLTQPSSSISTEINSALVLKVSWITFLLAKGEVLQMEDDLVISFQLMLCVLDYFIKLSPPMLLKEPYKTAVIPINGSPRTPRRGQNRSARIAKQLENDTRIIEVLCKEHECNIDEVKNVYFKNFIPFMNSLGLVTSNGLPEVENLSKRYEEIYLKNKDLDARLFLDHDKTLQTDSIDSFETQR”: the “soluble on expression in E. coli” value was “soluble”.

“MGNLFCCVLVKQSDVAVKERFGKFQKVLNPGLQFVPWVIGDYVAGTLTLRLQQLDVQCETKTKDNVFVTVVASIQYRVLADKASDAFYRLSNPTTQIKAYVFDVIRACVPKLNLDDVFEQKNEIAKSVEEELDKAMTAYGYEILQTLIIDIEPDQQVKRAMNEINAAARMRVAASEKAEAEKIIQIKRAEGEAESKYLSGLGIARQRQAIVDGLRDSVLGFAGNVPGTSAKDVLDMVMMTQYFDTMRDIGATSKSSAVFIPHGPGAVSDVAAQIRNGLLQANNAS”: the “soluble on expression in E. coli” value was “soluble”.

Consider “MAKKTSSKGKLPPGPTPLPIIGNMLQIDVKDICKSFTNFSKVYGPVFTVYFGMNPIVVFHGYEAVKEALIDNGEEFSGRGNSPISQRITKGLGIISSNGKRWKEIRRFSLTTLRNFGMGKRSIEDRVQEEAHCLVEELRKTKASPCDPTFILGCAPCNVICSVVFQKRFDYKDQNFLTLMKRFNENFRILNSPWIQVCNNFPLLIDCFPGTHNKVLKNVALTRSYIREKVKEHQASLDVNNPRDFIDCFLIKMEQEKDNQKSEFNIENLVGTVADLFVAGTETTSTTLRYGLLLLLKHPEVTAKVQEEIDHVIGRHRSPCMQDRSHMPYTDAVVHEIQRYSDLVPTGVPHAVTTDTKFRNYLIPKGTTIMALLTSVLHDDKEFPNPNIFDPGHFLDKNGNFKKSDYFMPFSAGKRICAGEGLARMELFLFLTTILQNFNLKSVDDLKNLNTTAVTKGIVSLPPSYQICFIPVHHHH”, for which the “soluble on expression in E. coli” value is reported as “soluble”.

As to “MGHHHHHHSHMARKLKGKIGSKGLKGALLRHKAKVKLVRNIESKQKHELRKKNSSANNKTVKRNQEFQKLNQGKVMPFEKDETLMLCGEGDFSFARSIVEQNYIESDNLIITSYDNSVNELKLKYPHTFEENYQYLKDLNIPIFFQIDVTKLVKSFKISKNNTWFKIINRLSDHRWGNKPLQNIVFNFPHNGKGIKDQERNIREHQDLIFNFFQNSLQLFNLINTKIQNDTLRYTQGYDLNEDTPQAKKLTAEGYGNIILSLFDGEPYDSWQIKLLAKKNGLTLSRSSKFQWENFP”, the “soluble on expression in E. coli” value is recorded as “soluble”.

In the case of “MSLEEPRGINYVELSTDDLGTLTRQMHQLGFQFIGYHRSKPHVQLWLRGQARIIVSEVTEEAGTTSAPVNGTFLRGIGFEVTDSQSAMDRAALLHAEEVPRDQAHDDEVLRGVFAPDGSEVFFHQFDAATPAWIKEFGHDHDEQVSHIDHVNLAQPSNHYDEAVLFYTSLLALHAQSSQDVPSPSGLVRSQVMSSTDGSVRMPLNVSPQPNAEAVAGRGIGSVVEAYPEHVAVACEDIFQAAATALSRGLDFLPVPQNYYEDLDSRFDLDLEFLQRLQENHVLYDRDEHGEFLHFYTSTIGSVFFEMIERRGDYLGFGAPDAPVRLAAQHRKNSQREGHHHHHH”, the “soluble on expression in E. coli” value is recorded as “not soluble”.

As to “MKIKAIEPTPSPNTMKVILNEVLPSGARNNYTNENKEQAPMQVQEILKIEGIKGVYHVADFLAVERNAKYDWKVLLQQVRAVFGEEVLEESEEQQLAHFGEVKVFVQMFFTIPMQVKLTDGTTEERVGLPDRFKESIMKVQMSAPNVVKERKWVEQSTRYGNFEEIGKEVVEEIVAAYSEERVNETVKELLNQAGAVEVTIQKREPYKVTEEMMKDSDWKNRFAALEQMDPTEEDIPVLKMALDDEKVSIRRLATAYLGMVKGDEVLPLLYKALLDRSVSVRRTAGDCLSDVGDPAAMFVMIKSLKDPSKLVRWRAAMFLFELGDESAIPALKAAQDDPEFEVAMQARLALERIEGGEEAKGSVWKQMTESRKGE”, the “soluble on expression in E. coli” value was “not soluble”.

Turning to “AHHHHHHGSKVEKGDVIRLHYTGKVKETGEIFDTTYEDVAKEARIYNPNGIYGPVPIAVGAGHVLPGLDKRLIGLEVKKKYVIEVPPEEGFGLRDPGKIKIIPLGKFRKSGIIPYPGLEIEVETENGRKMRGRVLTVSGGRVRVDFNHPLAGKTLVYEVEVVEKIEDPIEKIKALIELRLPMIDKDKVIIEISEKDVKLNFKDVDIDPKTLILGEILLESDLKFIGYEKVEFEPTIEELLKPKSAEEQESPNEEQQEESESKAEES”, the “soluble on expression in E. coli” value is reported as “not soluble”.

In the case of “MGANALDFYPEPLREEIERLNGRIYPAVNNGVYRAGFATRQDAYEEAFVQLFEELDYLEGLLGERRYLAGEYLTEADIRLFTTLVRFDAVYHGHFKCNLRRIEDYPNLSGWLRELYQRPGIGETVLEHHHHHH”, the “soluble on expression in E. coli” value is “not soluble”.

Take “MPGELDTFKEAVKIIIEKEFPELLSPARHMMRAIVIDARQSDCDLQVLAADGSPHPSFPPLANVLVPVRKSVQIGQKVRIGFYYGDPAMPYIDEVLSNGEA”: the “soluble on expression in E. coli” value was “not soluble”.

For the sequence “GVKCEPIEELTINVPEEYSSKIIDMVTRRKGEMTMMENTGERINLEFDMPSRGIIGLRTNVLTASAGEAIMAHRFKEYQPFKGDIERRTNGSIIAMESGTAFAYAIDKLQDRGKFFIFPQEEVYAGQV”, the “soluble on expression in E. coli” value is “not soluble”.

Turning to “MHHHHHHSSGRENLYFQGSSESVRVVVRCRPMNGKEKAASYDKVVDVDVKLGQVSVKNPKGTAHEMPKTFTFDAVYDWNAKQFELYDETFRPLVDSVLQGFNGTIFAYGQTGTGKTYTMEGIRGDPEKRGVIPNSFDHIFTHISRSQNQQYLVRASYLEIYQEEIRDLLSKDQTKRLELKERPDTGVYVKDLSSFVTKSVKEIEHVMNVGNQNRSVGATNMNEHSSRSHAIFVITIECSEVGLDGENHIRVGKLNLVDLAGSERQAKTGAQGERLKEATKINLSLSALGNVISALVDGKSTHIPYRDSKLTRLLQDSLGGNAKTVMVANVGPASYNVEETLTTLRYANRAKNIKNKPRVNEDPKDALLREFQ”, the “soluble on expression in E. coli” value is listed as “soluble”.

Regarding “MKLTGSKILIECLKEQGVDTIFGFPGGAVLNIYDELYRSQNEIRHILTSHEQGAAHAADGYARATGKVGVCLATSGPGATNLVTGIATAYMDSVPMVAITGQVATPLLGKDSFQEVDITGITMPITKHNFIVKDVNKLADIVRRAFYIAKEGRPGPVLIDICKDVTAAYAEYEPKSPQELPEVPVRVDEKCIDEAAEAINKAERPVILAGGGVSIAGANKELFEFATNAQIPVTTTLMGMGAFPGTHELFMGMIGMHGTKTTNMAVSESDLFIAIGARFSDRVISNVQRFAPKASIMHIDIDPAEIGKNINVQYALEGNIKKILQLLNERVKKKECTDWVRKINEWKELYPLKYPQDDKLHPQYIIERMYELTKGEAIITTEVGQHQMWAAQFYKYTSPRQFLSSGGLGTMGYGLGACIGARIGRPDKKVINVAGDGSFRMNCNELATAVEYKLPIIVAIFNNHALGMVRQWQQLFYGGRYSSTSLDRCTDFKALAEAYGAIGINVTAKEEVDEALNRALASEDTPVVINFEIDKDEMVFPIVPPGAPLSELIEE”, the “soluble on expression in E. coli” value is reported as “not soluble”.

In the case of “KVKSTFNKYSKVSSSKGMTGAMVAEQLLRSQGIYDVSIQRVSGSLTDNYNPRNKTLNLSDSVYNSTSVAAIGVAAHETGHAIQHAYGYGPLSFRTALFP”, the “soluble on expression in E. coli” value is “not soluble”.

“MTVYFIGAGPGAADLITVRGQRLLQRCPVCLYAGSIMPDDLLAQCPPGATIVDTGPLTLEQIVRKLADADADGRDVARLHSGDPSLYSALAEQCRELDALGIGYEIVPGVPAFAAAAAALKRELTVPGVAQTVTLTRVATLSTPIPPGEDLAALARSRATLVLHLAAAQIDAIVPRLLDGGYRPETPVAVVAFASWPQQRTLRGTLADIAARMHDAKITRTAVIVVGDVLTAEGFTDSYLYSVARHGRYAQ”: the “soluble on expression in E. coli” value is on record as “not soluble”.

For the sequence “MWDERFSQSEYVYGTEPNDFLVSVANQIPQGKILCLAEGEGRNACFLASLGYEVTAVDQSSVGLAKAKQLAQEKGVKITTVQSNLADFDIVADAWEGIVSIFCHLPSSLRQQLYPKVYQGLKPGGVFILEGFAPEQLQYNTGGPKDLDLLPKLETLQSELPSLNWLIANNLERNLDEGAYHQGKAALIQLLGQKLEHHHHHH”, the “soluble on expression in E. coli” value is listed as “soluble”.

On to “MGSDKIHHHHHHMILKRISILNYKNLEQVEIGFSAKLNCFFGQNGMGKTNLLDAVYFLSFCKSSGNPIDSQNIRHEQDFFVIQGFYEAEDGTPEEIYCGMKRRSKKQFKRNKKEYSRFSDHIGFLPLVMVSPADSELIAGGSDERRRFMDVVISQYDKEYLEALIRYNKALAQRNTLLKSEFPVEEELFLVWEEMMAQAGEIVFRKREAFIEEFIPIFQSFYSFISQDKEQVGLSYDSHARDASLLEVLKQSRERDKIMGFSLRGIHKDELNMLLGDFPIKKEGSQGQNKTYLVALKLAQFDFLKRTGQTVPLLLLDDIFDKLDASRVEQIVKLVAGDNFGQIFITDTNREHLDRILQKVGSDYKVFRVDQGVINEMGAEQ”, for which the “soluble on expression in E. coli” value was “not soluble”.

With “AHHHHHHGSPVYEINGIKPKIHPTAYVDENAVIIGDVVLEEKTSVWPSAVLRGDIERIYVGKYSNIQDNVSIHTSHGYPTEIGEYVTIGHNAVVHGAKIGNYVIIGMGAIILDGAKIGNHVIIGAGALVPPNKEIPDYSLVIGVPGKVVRQLSEEEIEWTKKNAEVYVELAEKHMKGRKKIMIYRIISHIPSIFFKPAYDLYERYLLEKVKAGVIPKHVAIIMDGNRRWARKREKPPWYGHFFGSKKLEEIVEWCHELGIRILTVYAFSTENFKRSKEEVDRLMKLFEEKFRELVTDRRVHEYGIRVNVMGRKELLPKNVREAAEEAERVTRKYNNYFLNIALAYGGRSEIVDAIKDIVNDVLEGRLKLEDINEEIVRKYLYVPNMPDPDIVIRTGGEVRISNFLLYQIAYSELFFVDVYFPEFRKIDFLRIIREFQKRERRFGR”, the “soluble on expression in E. coli” value is “soluble”.

Values taken from the DeepSol protein solubility set.
